Assay results reported in article PMC9374335, “C11orf94/Frey is a key regulator for male fertility by controlling Izumo1 complex assembly” (Science Advances, 2022).

Target: T1, Izumo1-3xFLAG (mouse, UniProt Q9D9J7 22-397)
T1 construct: Izumo sperm-egg fusion protein 1, mouse; open reading frame amplified from murine testis cDNA; source: HEK293T, transfected, in lysate (CHAPSO); not shown: 3xFLAG, C-terminal, kept
T1 sequence (looked up): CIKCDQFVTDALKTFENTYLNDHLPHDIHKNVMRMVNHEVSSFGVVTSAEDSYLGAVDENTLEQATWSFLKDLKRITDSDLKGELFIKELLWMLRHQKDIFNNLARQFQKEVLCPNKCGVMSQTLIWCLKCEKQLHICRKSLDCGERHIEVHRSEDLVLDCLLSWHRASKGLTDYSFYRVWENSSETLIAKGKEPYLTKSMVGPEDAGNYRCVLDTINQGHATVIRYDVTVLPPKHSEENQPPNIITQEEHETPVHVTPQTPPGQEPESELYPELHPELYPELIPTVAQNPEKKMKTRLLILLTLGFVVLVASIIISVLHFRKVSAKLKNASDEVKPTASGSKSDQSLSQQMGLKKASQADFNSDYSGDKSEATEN
Assay: co-IP; CHAPSO lysates of transfected HEK293T cells; 3xFLAG-tagged bait precipitated with anti-FLAG beads; with or without coexpressed C11orf94-3xmyc; Western blot
Details: partners not purified

fold change of the co-precipitation in the presence of C11orf94-3xmyc against its absence: ~1.7 fold
B1: murine ACE3 equipped with a C-terminal HA-tag (natural protein, mouse, UniProt D0G895 24-737, looked up)
chain: VGETSLNDFYSEAQAKLFLQFYEQTAQVVLNEFMEATWNYVTNITKQNQKNMLQKEADRSQFMLYFSTRARMFRTDHFLNQDVKRMLRKLQNIDKSALPTEDLLEYNRLLTYMETAYNRAEVCLDEGPCLTLEPDLQEIMATSRDQKELLWAWQGWRDAVGRQLRPVFEDYVRLSNKAAQYNGYKDMGALWRSKYESDTLEEDLEQLYKELQPLYLNLHAYVRRSLYRYYGPELIDLRGPIPAHLLGNMWAQSWNNILDLVLPYPTKAPEDITAIMKIQHWRPEKMFEEANLFFTSMGMLPAPPAFWIKSMMEKPADGREVECHTSSWNFYKFNDFRVKKCTEVTLEDLLSVFHQMGHIQYFLQYQNLSVIYQEGASPAFEEAVGSVIALSVSSHKYLLARGLLSQPHQDSEEEVNFLLGIALEKIAFIPFSYLVDKFRWKIFDGTISKITYNQEWWNFRLKYQGLCPPVPRSDDDFDPGAKFHIPANVPYIRYFLGLILQFQLHEALCEASGHVGPLHQCDNYNSKVAGKILGDLLKLGSSRPWREVLQEVTGESNISTKAFLTYFKPLMDWLVTENVKQGDTLGWPDFSCSFEEKITSKVSFLGTDTEPEQAYLGQWVLLSMSFFMLVLILALGFRLHYLEKQLLDEDTMILKTLPYSYFLGIAMEPHQAARKQWLLLGLCCILMLCCIGLLIRIVTQNTENTPWMKNEGQS
notes: Angiotensin-converting enzyme 3 (ACE3), mouse; open reading frame amplified from murine testis cDNA; also called ACE3-HA; angiotensin-converting enzyme 3; source: HEK293T, transiently transfected, in lysate (CHAPSO); not shown: HA, C-terminal, kept
